Data published in patent US20200247894A1 (Regeneron, published 2020).

T1: D2 domain of human IL2Rγ extracellular domain expressed with a C-terminal myc-myc-hexahistidine tag (human)
T1 construct: also called human IL2Rγ domain 2
T1 chain: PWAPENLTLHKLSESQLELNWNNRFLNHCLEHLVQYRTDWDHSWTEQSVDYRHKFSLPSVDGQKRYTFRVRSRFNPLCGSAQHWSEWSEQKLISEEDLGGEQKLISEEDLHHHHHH

T2: D1 domain of human IL-2Rγ extracellular domain expressed with a C-terminal myc-myc-hexahistidine tag (human)
T2 construct: also called human IL2Rγ domain 1
T2 chain: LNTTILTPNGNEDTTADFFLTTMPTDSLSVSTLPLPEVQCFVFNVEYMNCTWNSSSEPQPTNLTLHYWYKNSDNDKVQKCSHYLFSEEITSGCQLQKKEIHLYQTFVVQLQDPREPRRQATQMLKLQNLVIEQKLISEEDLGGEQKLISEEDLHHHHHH

T3: human IL2Rγ (endogenously expressed on cells) (human, UniProt P31785 23-369)
T3 sequence (looked up): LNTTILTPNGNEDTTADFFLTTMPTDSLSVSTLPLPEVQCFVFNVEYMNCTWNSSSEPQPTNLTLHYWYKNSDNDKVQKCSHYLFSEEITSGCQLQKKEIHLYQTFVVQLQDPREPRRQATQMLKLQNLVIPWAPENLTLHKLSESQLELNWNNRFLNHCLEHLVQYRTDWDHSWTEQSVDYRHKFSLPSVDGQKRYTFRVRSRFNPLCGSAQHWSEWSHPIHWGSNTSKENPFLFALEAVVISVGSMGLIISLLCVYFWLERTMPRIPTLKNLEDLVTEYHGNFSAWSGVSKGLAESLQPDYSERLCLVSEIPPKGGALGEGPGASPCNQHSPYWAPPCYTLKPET


Tests used:
[1] = biological target: T1, D2 domain of human IL2Rγ extracellular …; assay: SPR, mAb captured on anti-hFc, 25 C
Method: (§1) Equilibrium dissociation constants (KD values) for IL-2Rγ binding to purified anti-IL2Rγ monoclonal antibodies were determined using a Biacore 4000 instrument equipped with a real-time surface plasmon resonance biosensor. All binding studies were performed in 10 mM HEPES, 150 mM NaCl, 3 mM EDTA, and 0.05% v/v Surfactant Tween-20, pH 7.4 (HBS-ET) running buffer at 25° C. and 37° C. The Biacore sensor surface was first derivatized by amine coupling with a monoclonal mouse anti-human Fc antibody (GE, # BR-1008-39) to capture anti-IL2Rγ monoclonal antibodies.

[2] = biological target: T2, D1 domain of human IL-2Rγ extracellular …; assay: SPR, mAb captured on anti-hFc, 37 C
Method: as §1
(§2) The dissociation of monoclonal antibody bound IL2Rγ reagents were monitored for 8-10 minutes in HBS-ET running buffer. Kinetic association (kₐ) and dissociation (kd) rate constants were determined by fitting the real-time sensorgrams to a 1:1 binding model using Scrubber 2.0c curve fitting software. Binding dissociation equilibrium constants (KD) and dissociative half-lives (t_{1/2}) were calculated from the kinetic rate constants as: […]

[3] = biological target: T3, human IL2Rγ (endogenously expressed on …); assay: cell-based or functional assay
[4] = biological target: T2, D1 domain of human IL-2Rγ extracellular …; assay: SPR, mAb captured on anti-hFc, 25 C
Method: as §1, §2

[5] = biological target: T1, D2 domain of human IL2Rγ extracellular …; assay: SPR, mAb captured on anti-hFc, 37 C
Method: as §1

100 nM Ag Bound [1] [RU] | 100 nM Ag Bound [2] [RU] | Kd [2] [nM] | koff [2] [s⁻¹] | kon [2] [M⁻¹ s⁻¹] | t½ [2] [min] | IC50; IL-7 50 pM; NK92/hIL7R/STAT3-luc [3] [M] | Max Inhibition (%); IL-2 30 pM; NK92/hIL7R/STAT3-luc [3] [%] | Max Inhibition (%); IL-4 250 pM; Ramos.2G6.4C10/STAT3-luc [3] [%] | Max Inhibition (%); IL-7 50 pM; NK92/hIL7R/STAT3-luc [3] [%] | 100 nM Ag Bound [4] [RU] | Kd [4] [nM] | koff [4] [s⁻¹] | kon [4] [M⁻¹ s⁻¹] | t½ [4] [min] | 100 nM Ag Bound [5] [RU] | IC50; IL-4 250 pM; Ramos.2G6.4C10/STAT3-luc [3] [M] | Max Inhibition (%); IL-9 20 pM; NK92/hIL7R/STAT3-luc [3] [%] | Max Inhibition (%); IL-15 60 pM; NK92/hIL7R/STAT3-luc [3] [%] | IC50; IL-9 20 pM; NK92/hIL7R/STAT3-luc [3] [M] | Binder | further results
-1 | 2 | – | – | – | – | > 1e-07 | 15 | 54 | 66 | 1 | – | – | – | – | 1 | > 1e-07 | 36 | 35 | – | H4H12890P (antibody, human IgG4 S228P, kappa, V domains shown, human IgG4) VH: EVQLVESGGGLVQPGGSLRLSCAASGFTFNNYAMHWVRQAPGKGLEYVSSISSSGGSTYYEDSVKGRFTISRDNSKNTLYLQMGSLRAEDMAVYYCARSFYGSGTYYDTFDMWGQGTMVTVSS VL: DIQMTQSPSSLSASIGDRVTITCRASQSISRYLNWYQQKPGKAPKLLIYAASSLQSGVPSRFSASGSGTDFTLTISSLQPEDFATYYCQQSYSTPFTFGQGTKLEIKR | binding result [4]: no binding (tested: 100 nM)
35 | 0 | – | – | – | – | > 1e-07 | 27 | 92 | 81 | 0 | – | – | – | – | 26 | > 1e-07 | 84 | 64 | > 1e-07 | H4H12886P (antibody, human IgG4 S228P, kappa, V domains shown, human IgG4) VH: EVQLVESGGGLVKPGGSLRLSCAASGFTFSTAWMSWVRQSPGRGLEWVGRMKSKTDGGTTFYAAPVKGRFTISRDDSKNTLYLQMNSLKTEDTAVYYCTTGLVPAFYKYYGVDVWGQGTTVTVSS VL: DIQMTQSPSSLSASVGDRITITCQASQDITNYLNWYQQKPGKAPNLLIYDASNLVTGVPSRFSGSGSGTDFTFTILSLQPEDIATYYCQQYDSLLTFGPGTKVDIKR | Kd [1]: 0.535 nM; koff [1]: 0.000148 s⁻¹; kon [1]: 276000 M⁻¹ s⁻¹; t½ [1]: 78 min; binding result [2]: no binding (tested: 100 nM); IC50; IL-15 60 pM; NK92/hIL7R/STAT3-luc [3]: > 1e-07 M; Max Inhibition (%); IL-21 5 pM; NK92/hIL7R/STAT3-luc [3]: 18%; Kd [5]: 11.4 nM; koff [5]: 0.000377 s⁻¹; kon [5]: 33100 M⁻¹ s⁻¹; t½ [5]: 31 min
37 | 1 | – | – | – | – | > 1e-07 | 24 | 55 | 77 | 0 | – | – | – | – | 16 | > 1e-07 | 57 | 58 | > 1e-07 | H4H12913P2 (antibody, human IgG4 S228P, kappa, V domains shown, human IgG4) VH: EVQLVESGGGVVRPGGSLRLSCAASGFTFDDYGMSWVRQAPGKGLEWISSINRNGGSADYADSVKGRFTISRDNAKNSLFLQMSSLRAEDTALYHCASGEFRFDYWGQGTLVTVSS VL: not shown | Kd [1]: 2.76 nM; koff [1]: 0.000708 s⁻¹; kon [1]: 256000 M⁻¹ s⁻¹; t½ [1]: 16 min; IC50; IL-15 60 pM; NK92/hIL7R/STAT3-luc [3]: > 1e-07 M; binding result [4]: no binding (tested: 100 nM); Kd [5]: 12.7 nM; koff [5]: 0.00337 s⁻¹; kon [5]: 266000 M⁻¹ s⁻¹; t½ [5]: 3.4 min

Further lines, the binder ahead of its results:

Binder | 100 nM Ag Bound [1] [RU] | 100 nM Ag Bound [2] [RU] | Kd [2] [nM] | koff [2] [s⁻¹] | kon [2] [M⁻¹ s⁻¹] | t½ [2] [min] | IC50; IL-7 50 pM; NK92/hIL7R/STAT3-luc [3] [M] | Max Inhibition (%); IL-2 30 pM; NK92/hIL7R/STAT3-luc [3] [%] | Max Inhibition (%); IL-4 250 pM; Ramos.2G6.4C10/STAT3-luc [3] [%] | Max Inhibition (%); IL-7 50 pM; NK92/hIL7R/STAT3-luc [3] [%] | 100 nM Ag Bound [4] [RU] | Kd [4] [nM] | koff [4] [s⁻¹] | kon [4] [M⁻¹ s⁻¹] | t½ [4] [min] | 100 nM Ag Bound [5] [RU] | IC50; IL-4 250 pM; Ramos.2G6.4C10/STAT3-luc [3] [M] | Max Inhibition (%); IL-9 20 pM; NK92/hIL7R/STAT3-luc [3] [%] | Max Inhibition (%); IL-15 60 pM; NK92/hIL7R/STAT3-luc [3] [%] | IC50; IL-9 20 pM; NK92/hIL7R/STAT3-luc [3] [M] | further results
H4H12884P (antibody, human IgG4 S228P, kappa, V domains shown, human IgG4) VH: QVQLQESGPGLVKPSQTLSLTCTVSGGSISSGGYYWSWIRQHPGKGLEWIGFIYYSGKTYYNPSLKSRLTISVDTSKSQFSLKLRSVTAADTAVYYCARLGYTNSAGWFDPWGQGTLVTVSS VL: DIQMTQSPSSLSASVGDRVTITCRASQSISSYLNWYQQKPGKAPNLLIYAASSLQSGVPSRFSGSGSGTDFTLTISSLQPEDLATYYCQQSYTTPFTFGPGTKVDIKR | 1 | 32 | 32.9 | 0.00442 | 134000 | 2.6 | 2.3e-09 | 13 | 19 | 34 | 51 | 11.8 | 0.00196 | 166000 | 6 | 2 | – | – | – | – | binding result [1]: no binding (tested: 100 nM)
H4H12863P (antibody, human IgG4 S228P, kappa, V domains shown, human IgG4) VH: QVQLVESGGGVVQPGRSLRLSCTASGFTFRSYDMYWVRQAPGKGLEWVSVITYDGNNKYYADSVKGRFTISRDNSKNTLFLQMSSLRPEDTAVYYCAKRGLIWVGESFDYWGQGTLVTVSS VL: DIQMTQSPSTLSASVGDRVTITCRASQSINSWLAWYQQKPGKAPNLLIYKASSLESGVPSRFSGSGSGTEFTLTISSLQPDDFATYYCQQYKSYSWTFGQGTKVEIKR | 0 | 39 | 8.69 | 0.00221 | 254000 | 5 | 1.5e-09 | 48 | 70 | 42 | 55 | 4.74 | 0.000538 | 114000 | 21 | -1 | 3.6e-10 | 38 | 30 | 4.7e-10 | IC50; IL-2 30 pM; NK92/hIL7R/STAT3-luc [3]: 4.3e-10 M; IC50; IL-21 5 pM; NK92/hIL7R/STAT3-luc [3]: > 1e-07 M; Max Inhibition (%); IL-21 5 pM; NK92/hIL7R/STAT3-luc [3]: 28%
H4H12859P (antibody, human IgG4 S228P, kappa, V domains shown, human IgG4) VH: QVQLVQSGAEVKKPGASVRVSCKASGYTFTDYDIHWVRQAPGHGLEWMGWINPNSGGTNYAQKFQGRVTMTRDTSISTVYMDLSRLRSDDTAVYYCARADYSSSYYYYGMDVWGQGTTVTVSS VL: not shown | -1 | 0 | – | – | – | – | – | 29 | – | – | 0 | – | – | – | – | -1 | – | – | – | – | binding result [2]: no binding (tested: 100 nM)
